# Results from publication PMC2645002.
# Biological target: miniCD4 CD4M48, biotinylated at Lys11
# Assay: pull-down
substance,measurement,value
HIV-1 envelope glycoprotein gp120SF162 (monomer) (natural protein),% of recovery,55.8%
